Reference: US20040228849A1 (University of California, published 2004)

T1: Flag-IKKβ
T1 chain: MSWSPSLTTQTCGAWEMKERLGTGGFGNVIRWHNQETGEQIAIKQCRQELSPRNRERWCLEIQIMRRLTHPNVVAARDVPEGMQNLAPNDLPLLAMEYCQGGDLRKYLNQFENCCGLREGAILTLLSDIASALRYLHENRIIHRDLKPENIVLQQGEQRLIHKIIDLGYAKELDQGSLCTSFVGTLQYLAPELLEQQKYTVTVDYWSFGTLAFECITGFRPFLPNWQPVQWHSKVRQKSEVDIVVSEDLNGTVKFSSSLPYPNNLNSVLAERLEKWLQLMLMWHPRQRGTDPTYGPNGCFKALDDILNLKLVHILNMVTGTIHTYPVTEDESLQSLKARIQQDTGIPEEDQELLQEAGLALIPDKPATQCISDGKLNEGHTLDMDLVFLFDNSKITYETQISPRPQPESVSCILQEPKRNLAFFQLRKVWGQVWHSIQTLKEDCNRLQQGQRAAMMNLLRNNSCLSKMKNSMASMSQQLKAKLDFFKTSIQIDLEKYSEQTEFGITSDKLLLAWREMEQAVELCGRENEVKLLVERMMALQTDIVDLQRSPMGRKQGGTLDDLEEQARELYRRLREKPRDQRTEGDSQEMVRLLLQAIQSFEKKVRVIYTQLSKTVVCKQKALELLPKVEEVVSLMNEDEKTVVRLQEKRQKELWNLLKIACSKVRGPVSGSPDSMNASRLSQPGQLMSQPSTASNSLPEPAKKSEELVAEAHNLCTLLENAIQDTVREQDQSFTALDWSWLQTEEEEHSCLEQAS

T2: Flag-IKKβ (human, UniProt O14920 1-756)
T2 construct: Transiently coexpressed in 293 cells
T2 sequence: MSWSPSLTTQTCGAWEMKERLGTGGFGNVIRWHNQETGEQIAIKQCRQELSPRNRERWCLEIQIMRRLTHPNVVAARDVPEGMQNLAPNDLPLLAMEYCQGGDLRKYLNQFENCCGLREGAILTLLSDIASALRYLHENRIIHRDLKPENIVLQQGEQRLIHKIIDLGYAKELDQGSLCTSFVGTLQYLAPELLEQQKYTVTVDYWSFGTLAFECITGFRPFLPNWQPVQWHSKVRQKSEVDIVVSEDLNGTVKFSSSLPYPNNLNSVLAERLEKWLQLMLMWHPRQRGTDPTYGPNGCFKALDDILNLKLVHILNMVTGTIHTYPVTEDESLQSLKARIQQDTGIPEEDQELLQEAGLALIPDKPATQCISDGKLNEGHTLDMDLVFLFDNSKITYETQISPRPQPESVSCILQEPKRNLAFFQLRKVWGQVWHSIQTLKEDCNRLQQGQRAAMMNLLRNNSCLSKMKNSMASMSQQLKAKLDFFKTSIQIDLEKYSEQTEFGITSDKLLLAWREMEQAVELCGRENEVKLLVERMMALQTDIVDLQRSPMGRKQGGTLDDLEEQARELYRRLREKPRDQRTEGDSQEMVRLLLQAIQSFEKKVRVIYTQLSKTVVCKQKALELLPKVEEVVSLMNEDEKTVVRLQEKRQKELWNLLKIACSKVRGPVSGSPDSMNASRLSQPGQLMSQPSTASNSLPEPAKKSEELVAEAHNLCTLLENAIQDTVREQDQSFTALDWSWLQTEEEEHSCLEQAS

T3: IKKβ (full length human IKKβ subunit) (human, UniProt O14920 1-756)
T3 construct: Endogenous protein of HeLa cells; also called endogenous IKKβ; 87 kDa protein
T3 sequence: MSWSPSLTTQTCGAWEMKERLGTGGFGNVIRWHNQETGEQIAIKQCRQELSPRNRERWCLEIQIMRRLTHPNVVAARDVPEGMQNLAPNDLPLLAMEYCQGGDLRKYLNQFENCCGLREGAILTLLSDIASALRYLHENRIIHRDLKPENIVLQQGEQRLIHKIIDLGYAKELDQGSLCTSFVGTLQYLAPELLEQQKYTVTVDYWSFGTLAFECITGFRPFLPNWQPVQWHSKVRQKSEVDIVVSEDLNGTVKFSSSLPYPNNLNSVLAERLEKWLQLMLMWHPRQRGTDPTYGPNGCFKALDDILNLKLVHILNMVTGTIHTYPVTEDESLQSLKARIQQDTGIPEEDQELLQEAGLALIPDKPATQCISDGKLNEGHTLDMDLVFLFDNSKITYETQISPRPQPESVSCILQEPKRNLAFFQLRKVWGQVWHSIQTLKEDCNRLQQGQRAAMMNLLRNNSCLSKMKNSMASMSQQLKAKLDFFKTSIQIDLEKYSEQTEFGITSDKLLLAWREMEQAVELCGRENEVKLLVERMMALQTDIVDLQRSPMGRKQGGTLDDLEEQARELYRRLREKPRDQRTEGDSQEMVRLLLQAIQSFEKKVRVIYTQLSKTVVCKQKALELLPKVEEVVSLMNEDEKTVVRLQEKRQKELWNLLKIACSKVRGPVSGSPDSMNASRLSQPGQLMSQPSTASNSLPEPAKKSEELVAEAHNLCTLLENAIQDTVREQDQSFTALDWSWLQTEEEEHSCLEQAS


Legend:
Flag-IKKβ [1] = target: T1, Flag-IKKβ
Flag-IKKβ [2] = target: T2, Flag-IKKβ; experiment: coimmunoprecipitation from transfected 293 cells: anti-HA immune complexes probed with anti-Flag(M2)
[3] = target: T3, IKKβ (full length human IKKβ subunit); experiment: immunoprecipitation experiments, transfected mammalian cells
[4] = target: the molecule itself; experiment: as above

| binding result (Flag-IKKβ [2]) | binding result [3] | Binder | IKK activity isolated by immunoprecipitation with anti-HA (IκB kinase activity) (Flag-IKKβ [1]) | binding result [4] |
| --- | --- | --- | --- | --- |
| no binding | – | HA-IKKα(LZ)^- (enzyme, not shown: small tags and cut ends, Leucine zipper mutant of IKKα; also called IKKα(LZ)^- mutant; IKKα LZ^- mutant) MERPPGLRPGAGGPWEMRERLGTGGFGNVCLYQHRELDLKIAIKSCRLELSTKNRERWCHEIQIMKKLNHANVVKACDVPEELNILIHDVPLLAMEYCSGGDLRKLLNKPENCCGLKESQILSLLSDIGSGIRYLHENKIIHRDLKPENIVLQDVGGKIIHKIIDLGYAKDVDQGSLCTSFVGTLQYLAPELFENKPYTATVDYWSFGTMVFECIAGYRPFLHHLQPFTWHEKIKKKDPKCIFACEEMSGEVRFSSHLPQPNSLCSLIVEPMENWLQLMLNWDPQQRGGPVDLTLKQPRCFVLMDHILNLKIVHILNMTSAKIISFLLPPDESLHSLQSRIERETGINTGSQELLSETGISLDPRKPASQCVLDGVRGCDSYMVYLFDKSKTVYEGPFASRSLSDCVNYIVQDSKIQLPIIQLRKVWAEAVHYVSGLKEDYSRLFQGQRAAMLSLLRYNANSTKMKNTSISASQQLKAKLEFFHKSIQLDLERYSEQMTYGISSEKMLKAWKEMEEKAIHYAEVGVIGYLEDQIMSLHAEIMELQKSPYGRRQGDLMESLEQRAIDLYKQLKHRPSDHSYSDSTEMVKIIVHTVQSQDRVLKERFGHLSKLLGCKQKIIDLLPKVEVALSNIKEADNTVMFMQGKRQKEIWHLLKIACTQSSARSLVGSSLEGAVTPQAYAWLAPDLAEHDHSLSCVVTPQDGETSAQMIEENLNCLGHLSTIIHEANEEQGNSMMNLDWSWLTE | had no effect on the very low activity that coprecipitated with HA-IKKα(LZ)^- | – |
| – | binds | IKKα (full length human IKKα subunit) (enzyme, Endogenous protein of HeLa or 293 cells; also called endogenous IKKα; 85 kDa protein) MERPPGLRPGAGGPWEMRERLGTGGFGNVCLYQHRELDLKIAIKSCRLELSTKNRERWCHEIQIMKKLNHANVVKACDVPEELNILIHDVPLLAMEYCSGGDLRKLLNKPENCCGLKESQILSLLSDIGSGIRYLHENKIIHRDLKPENIVLQDVGGKIIHKIIDLGYAKDVDQGSLCTSFVGTLQYLAPELFENKPYTATVDYWSFGTMVFECIAGYRPFLHHLQPFTWHEKIKKKDPKCIFACEEMSGEVRFSSHLPQPNSLCSLIVEPMENWLQLMLNWDPQQRGGPVDLTLKQPRCFVLMDHILNLKIVHILNMTSAKIISFLLPPDESLHSLQSRIERETGINTGSQELLSETGISLDPRKPASQCVLDGVRGCDSYMVYLFDKSKTVYEGPFASRSLSDCVNYIVQDSKIQLPIIQLRKVWAEAVHYVSGLKEDYSRLFQGQRAAMLSLLRYNANLTKMKNTLISASQQLKAKLEFFHKSIQLDLERYSEQMTYGISSEKMLKAWKEMEEKAIHYAEVGVIGYLEDQIMSLHAEIMELQKSPYGRRQGDLMESLEQRAIDLYKQLKHRPSDHSYSDSTEMVKIIVHTVQSQDRVLKERFGHLSKLLGCKQKIIDLLPKVEVALSNIKEADNTVMFMQGKRQKEIWHLLKIACTQSSARSLVGSSLEGAVTPQAYAWLAPDLAEHDHSLSCVVTPQDGETSAQMIEENLNCLGHLSTIIHEANEEQGNSMMNLDWSWLTE | – | binds |
